Where only a bound is given, the exact number is not on record here.

The target in the first assay is Phosphopeptide PPPT{pTyr}TEVDP. In words: competitive ELISA, soluble phosphopeptide titrated against the immobilized peptide. (In general: In an ELISA, binding on a coated surface is turned into a signal by an enzyme label.)
What is called IC50 is the concentration that gives 50% inhibition. Low readings indicate higher potency, high ones lower potency. Ptn11_C^sFes/αA-2-Arg (designed binder): the IC50 came out at 1100 nM.

A further assay deals with Phosphopeptide KQVE{pTyr}LDLDLD. The description is as above.
In turn, “Ptn11_N^αA-2-Arg, Ptn11_N SH2 domain with the αA-2 position mutated to Arg (designed binder)” displayed an IC50 of 14 nM.

A further assay concerns the target pTyr-containing peptide (pEZ) derived from Ezrin, PPV{pTyr}EPVS. In words: competitive phage ELISA (IC50), soluble Ezrin phosphopeptide against the immobilized peptide.
“Fes^sSrc, Fes SH2 domain with the sSrc superbinder motif grafted (designed binder)”: the fold enhancement of affinity over wt stood at 650 fold.

The target is the same in another assay. In words: fluorescence polarization; the wt is the reference. On the technique in general: Polarisation of emitted light reports the rotation of a fluorescent probe.
“Fes SH2 domain, wild type (Fes^wt) (from UniProt P07332 460-549)” returned a Fold Change of 1 fold.

A further assay deals with pMT peptide EEPQ{pTyr}EEIPIY. The assay can be described thus: competitive phage ELISA (IC50), soluble pMT peptide against the immobilized peptide.
For “Src^sFes, Src SH2 domain with the sFes superbinder motif grafted (designed binder)”, the fold enhancement of affinity over wt came out at 125 fold.

The target of another assay is phosphopeptide. In words: competition binding.
As to Abl1 wt, the IC50 was 1600 nM.
The same measure, in the same setting: with Abl1 sFes the figure was 120 nM.
On the same count and under the same terms, with Grb2 sFes the figure was 90 nM; with Crkl wt, 3100 nM; with P85A_N sFes, 0.9 nM.
Still for that read-out and setting: with Shc1 sFes the figure was over 20000 nM; with Abl1 sSrc, 290 nM; with Vav sSrc, 950 nM.
The substance P85B_N wt gave an IC50 of over 20000 nM.
Same read-out and setting: for P85B_N sFes the value was 220 nM; for Vav wt, over 20000 nM; for Blk sSrc, 110 nM.
Still for that read-out and setting: for P85A_N sSrc the value was 2300 nM; for P85B_N sSrc, over 20000 nM.
Regarding Src sSrc, the IC50 worked out at 19 nM.
Still for that read-out and setting: with Vav2 sSrc the figure was 872 nM.
Still for that read-out and setting: with Lck wt the figure was 360 nM; with Lck sFes, 70 nM.
Still for that read-out and setting: with Vav2 wt the figure was over 20000 nM; with Vav3 wt, over 20000 nM; with Nck1 wt, 2000 nM.
Substance Grb2 wt yielded a half-inhibitory concentration (IC50) of 560 nM.
With P85A_N wt, the IC50 amounted to 540 nM.
Same read-out and setting: for Crkl sSrc the value was 27 nM.
The same measure, in the same setting: for Nck1 sSrc the value was 100 nM; for Btk sSrc, 810 nM.
Still for that read-out and setting: with Btk wt the figure was over 20000 nM; with Grb2 sSrc, 11 nM.
The substance Btk sFes displayed an IC50 of 1100 nM.
The same measure, in the same setting: with Vav2 sFes the figure was over 20000 nM; with Blk sFes, 940 nM; with Shc1 wt, over 20000 nM.
Still for that read-out and setting: with Blk wt the figure was over 20000 nM; with Nck1 sFes, over 20000 nM.
Still for that read-out and setting: for P55G_N sFes the value was 1900 nM.
Substance Shc1 sSrc returned an IC50 of 7200 nM.
The same measure, in the same setting: for Lck sSrc the value was 12 nM.

For the next assay, the target named is pTyr-containing peptide (pEZ) derived from Ezrin, PPV{pTyr}EPVS. In words: fluorescence polarization, purified SH2 domain with fluorescein-labelled ezrin phosphopeptide.
Substance “Fes SH2 domain, wild type (Fes^wt) (from UniProt P07332 460-549)” had an IC50 of 1300 nM.

(Values after patent publication US20260055143A1, “HIGH AFFINITY VARIANTS OF SH2 DOMAINS” (Axoiya Inc., priority 2023, published 2026).)
